# From patent US11976099B2, “Compositions and methods for treatment of bone associated diseases” (THE NATIONAL INSTITUTE FOR BIOTECHNOLOGY IN THE NEGEV LTD., priority 2016, dated 2024)
# Legend:
# [1] = BS^3 chemical cross linking / SDS-PAGE dimerization assay; assay type: physicochemical; settings: for dimerization after BS^3 cross linking: Example 4, BS^3 up to 2500 μM, FIG. 8; for monomer/dimer bands after BS^3 cross linking: Example 11, BS^3 0-2500 μM, SDS-PAGE, FIG. 16A
# Experimental: Then, Tris was added to a final concentration of 30 mM and the mixture was incubated for 15 min at room temperature. Samples were denaturized and loaded on 15% SDS-PAGE. The gels were stained with coomassie blue (InstantBlue, Expedeon, CA, USA) and visualized with MiniBis pro (DNR Bio-Imaging Systems, Jerusalem, Israel).
# BS^3 crosslinking assay—Human (4 μg) and murine M-CSFWT (1 μg), M-CSFC31S (1 μg) and M-CSFC31S,M27R (2.5 μg) were incubated with different concentrations of BS^3 [bis(sulfosuccinimidyl)suberate] (ThermoFisher Scientific, MA, USA) cross linker (0, 25 μM, 100 μM, 250 μM, 500 μM, 1000 μM and 2500 μM) for 30 min at room temperature. Then, […] was added to a final concentration of 30 mM, and the mixture was incubated for 15 min at room temperature. Samples were denaturized with sample buffer, boiled, and loaded on 15% SDS-PAGE for protein separation. The gels were stained with InstantBlue staining (Expedeon, CA, USA) for 40 min, followed by two washing steps with double distilled water. The gels were visualized with MiniBis pro (DNR Bio-Imaging Systems, Jerusalem, Israel).
# Experiments were conducted in order to verify that the purified variants are incapable of dimerizing. The purified variants were incubated with a cross linker reagent (BS^3 [bis(sulfosuccinimidyl)suberate]) to enhance and visualize non-covalent intermolecular interactions. Following incubation, the reactions were stopped and the samples were loaded in denaturized conditions on a protein gel.
# To validate the structural and computational analysis and to verify that M-CSFC31S,M27R is indeed a monomer, several biophysical assays were conducted. First, purified murine and human M-CSFWT, M-CSFC31S and M-CSFC31S,M27R were crosslinked via lysine residues using different amounts of BS^3 reagent [bis(sulfosuccinimidyl)suberate], and the proteins sizes were evaluated using SDS-PAGE (FIG. 16A). Murine M-CSFWT served as positive control, since it has a lysine in the dimerization site (K68), which facilitates the intermolecular cross-linking of the two monomers in the dimer. […] The dimer band became more prominent at higher BS^3 concentrations. It is likely that the non-covalent dimerization allows other lysines in M-CSFC31S to come into close proximity and crosslink.
# [2] = tested on: murine bone marrow derived monocytes (BMMs) differentiating to osteoclasts; assay: Osteoclast differentiation assay of murine BMMs (TRAP staining); assay type: cell-based, mouse; settings: for effect on osteoclast differentiation/formation: Example 9, FIG. 13, varying concentrations, five days; for number of osteoclasts and number of nuclei / osteoclast formation: Example 14; for osteoclast formation: 50, 1000 and 5000 nM with M-CSFWT and RANKL
# Experimental: Primary cells differentiation assay—Murine primary cells were obtained as described in the murine primary cells section. Cells were washed with PBS and detached using a cell scraper, and 20,000 cells were plated in each well of a 96-well plate. Osteoclast differentiation was induced by culturing the cells in α-MEM containing 10% of fetal bovine serum (FBS), penicillin and streptomycin, […] M-CSF and 20 ng/ul RANKL (R&D Systems, USA). To determine the influence of the M-CSFRGD variants and the M-CSFM on the osteoclasts, the proteins were added to the differentiation medium (with M-CSF and RANKL) in three different concentrations (50 nM, 1 μM and 5 μM). After 72-96 h, once the cells had differentiated fully, they were fixated with 4% paraformaldehyde and stained using the tartrate-resistant acid phosphatase (TRAP) staining kit (Sigma-Aldrich, USA) according to manufacturer's protocol. As a positive control, PBS was used instead of the inhibitors, and negative controls comprised cells incubated in differentiation medium without RANKL and inhibitors. […] Cells in each image were counted in a double-blind manner and the number of nuclei in the osteoclasts and the total osteoclast surface area were determined using ImageJ software. Three repeats were performed for every condition, and each repeat was normalized to the positive control values.
# Differentiation assay—BMMs and CD14+ cells were obtained and grown as described above. The plates containing the monocytes were washed with PBS; the cells were detached using a cell scraper for BMMs or Accutase (Biological industries, Israel) for CD14^+; and 2×10^4 BMMs or 1×10^4 CD14^+ cells were transferred to each well in a 96-well plate. Osteoclast differentiation was induced as described in the ‘phosphorylation assay’ section. To determine the influence of M-CSFC31S and the M-CSFC31S,M27R on osteoclast differentiation, the proteins were added to the differentiation medium (with M-CSF and RANKL) in different concentrations (50 nM, 1 μM and 5 μM for BMMs and 50 nM, 250 nM and 1 μM for CD14^+). To determine the influence of human M-CSFWT on the differentiation, it was added to the cells in different concentrations (50 nM 1 μM and 5 μM) without adding murine M-CSFWT. Once the cells were fully differentiated, they were fixed with 4% paraformaldehyde and stained using the tartrate-resistant acid phosphatase (TRAP) staining kit (Sigma-Aldrich, USA) according to the manufacturer's protocol. As the positive control, cells were incubated with M-CSF and RANKL without inhibitors, and the negative control was comprised of cells that were incubated in differentiation medium without RANKL. […] Cells in each image were counted in a double-blind manner, and the number of nuclei in the osteoclasts was determined using ImageJ software. For the positive control of BMMs, an average of 28.33 osteoclasts and 135 nuclei per well were counted. For CD14^+ positive control, the average numbers of osteoclasts and nuclei were 14.5 and 75, respectively, per well. The results for each parameter were normalized to the positive control values.
# Murine bone marrow monocytes were purified from the bone marrow of eight- to twelve-week-old mice and were seeded for osteoclast differentiation in the presence of recombinant M-CSF and RANKL for 72-96 h. […] At the end of the differentiation period, osteoclasts were fixed and stained for Tartrate resistant acid phosphatase activity (TRAP). Osteoclast differentiation and spreading were evaluated in terms of three parameters: number of osteoclasts, number of nuclei in osteoclasts and osteoclast surface area.
# The positive control contains a differentiation medium with both M-CSF WT and RANKL. The negative control contains only […], which keeps the cells alive though not differentiated. Varying concentrations of M-CSFM and M-CSFM,M27R were added to the cells, that were grown for five days. Then the cells were fixated and stained using TRAP staining for differentiated osteoclasts. […]
Molecule,dimerization after BS^3 cross linking [1],monomer/dimer bands after BS^3 cross linking [1],"number of osteoclasts and nuclei at 5000 nM ([2]; BMMs, 5000 nM)","effect on osteoclast differentiation ([2]; Example 8, 50 nM, 1 μM and 5 μM with M-CSF and RANKL, 72-96 h)",effect on osteoclast differentiation/formation [2],number of osteoclasts and number of nuclei ([2]; BMMs),osteoclast formation ([2]; BMMs),"numbers of osteoclasts and their nuclei ([2]; BMMs, 50, 1000 and 5000 nM without murine M-CSFWT)"
M-CSFM: 158 amino acid M-CSF with cysteine at position 31 replaced by serine (SEQ ID NO: 2) (protein) EEVSEYCSHMIGSGHLQSLQRLIDSQMETSSQITFEFVDQEQLKDPVCYLKKAFLLVQDIMEDTMRFRDNTPNAIAIVQLQELSLRLKSCFTKDYEEHDKACVRTFYETPLQLLEKVKNVFNETKNLLDKDWNIFSKNCNNSFAECSSQGHERQSEGS,some dimerization interactions,mixture of monomer and dimer bands,reduction in both osteoclasts and nuclei number,markedly enhanced osteoclast differentiation,acts as an inducer for osteoclast differentiation,the opposite result,highly accelerated in the two lower concentrations,–
"M-CSFC31S,M27R: M-CSF double mutant containing both C31S and M27R; monomeric, monospecific c-FMS antagonist (protein) EEVSEYCSHMIGSGHLQSLQRLIDSQRETSSQITFEFVDQEQLKDPVCYLKKAFLLVQDIMEDTMRFRDNTPNAIAIVQLQELSLRLKSCFTKDYEEHDKACVRTFYETPLQLLEKVKNVFNETKNLLDKDWNIFSKNCNNSFAECSSQGHERQSEGS",–,did not produce any band corresponding to a dimer,–,–,inhibits osteoclast formation in a dose dependent manner,"a decrease in both parameters, in a dose-dependent manner","significantly inhibited, in a dose-dependent manner",–
"M-CSFWT: wild-type human M-CSF, disulfide-bond-linked homodimer which binds and activates c-FMS (protein) EEVSEYCSHMIGSGHLQSLQRLIDSQMETSCQITFEFVDQEQLKDPVCYLKKAFLLVQDIMEDTMRFRDNTPNAIAIVQLQELSLRLKSCFTKDYEEHDKACVRTFYETPLQLLEKVKNVFNETKNLLDKDWNIFSKNCNNSFAECSSQGHERQSEGS",–,only a faint band in a size that corresponds to a dimer,–,–,–,–,–,"inhibits both the numbers of osteoclasts and their nuclei, in a dose dependent manner"
"5.6: bispecific M-CSFRGD variant from sort five; M-CSFM loop replaced by XXXRGDXXX motif; binds c-FMS and αvβ3 integrin (protein, left off: small tags and cut ends) EEVSEYCSHMIGSGHLQSLQRLIDTYPRGDMCSITFEFVDQEQLKDPVCYLKKAFLLVQDIMEDTMRFRDNTPNAIAIVQLQELSLRLKSCFTKDYEEHDKACVRTFYETPLQLLEKVKNVFNETKNLLDKDWNIFSKNCNNSFAECSSQGHERQSEGS",did not show any dimerization,–,–,–,–,–,–,–
